In test [1] the target is T1, human ILT4 chimeric reporter receptor (ILT4 extracellular domain fused to PILRbeta transmembrane/intracellular domain) (human), Q8N423.
Test [2] deals with T1, human ILT4 chimeric reporter receptor …. This is another data set of the same source.
Test [3] addresses soluble rhesus ILT2-ECD (rhesus macaque). Description: SPR (Biacore), antibody captured on Protein A chip, soluble rhesus ILT2-ECD injected (1.6-200 nM), 25 C. Background: In SPR one partner is held on a chip, and binding of the other changes the refractive index at the surface.
The target in test [4] is ILT2 and/or ILT4 on human CD14+ monocytes. Description: flow cytometry, fluorescently labelled antibody on CD14+ monocytes of human PBMC, donor Human 2, geometric MFI.
For test [5] the target is unchanged. The test is described as follows: flow cytometry, fluorescently labelled antibody on CD14+ monocytes of human PBMC, donor Human 1, geometric MFI. A general note: Flow cytometry measures light scatter and fluorescence of single cells or particles in a stream.
The target in test [6] is human ILT2 chimeric reporter receptor (ILT2 extracellular domain fused to PILRbeta transmembrane/intracellular domain) (human), Q8NHL6.
Chain of human ILT2 chimeric reporter receptor (ILT2 extracellular domain fused to PILRbeta transmembrane/intracellular domain) (human), Q8NHL6 (Q8NHL6 24-461 limits assumed, change not shown): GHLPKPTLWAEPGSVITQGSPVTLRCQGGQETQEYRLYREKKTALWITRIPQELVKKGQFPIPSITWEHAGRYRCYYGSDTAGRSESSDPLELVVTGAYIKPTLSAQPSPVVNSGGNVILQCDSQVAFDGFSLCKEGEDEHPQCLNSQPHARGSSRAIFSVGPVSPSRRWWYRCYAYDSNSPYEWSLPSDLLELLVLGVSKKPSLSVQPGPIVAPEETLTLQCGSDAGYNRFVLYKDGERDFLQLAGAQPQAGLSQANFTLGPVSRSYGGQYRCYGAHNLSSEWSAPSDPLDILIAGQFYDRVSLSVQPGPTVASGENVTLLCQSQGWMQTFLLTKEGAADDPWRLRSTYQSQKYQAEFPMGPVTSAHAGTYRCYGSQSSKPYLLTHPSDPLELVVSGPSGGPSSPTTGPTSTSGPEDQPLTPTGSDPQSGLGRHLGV
Test [7] deals with cyno ILT2 chimeric reporter receptor (cyno ILT2 extracellular domain fused to PILRbeta transmembrane/intracellular domain) (cynomolgus monkey).
In test [8] the target is soluble rhesus ILT2-ECD (rhesus macaque). Description: SPR (Biacore), antibody captured on Protein A chip, soluble rhesus ILT2-ECD injected, 25 C, low resolution parameters.
Chain of soluble rhesus ILT2-ECD (rhesus macaque) (chain, as listed by the source limits assumed, form in doubt): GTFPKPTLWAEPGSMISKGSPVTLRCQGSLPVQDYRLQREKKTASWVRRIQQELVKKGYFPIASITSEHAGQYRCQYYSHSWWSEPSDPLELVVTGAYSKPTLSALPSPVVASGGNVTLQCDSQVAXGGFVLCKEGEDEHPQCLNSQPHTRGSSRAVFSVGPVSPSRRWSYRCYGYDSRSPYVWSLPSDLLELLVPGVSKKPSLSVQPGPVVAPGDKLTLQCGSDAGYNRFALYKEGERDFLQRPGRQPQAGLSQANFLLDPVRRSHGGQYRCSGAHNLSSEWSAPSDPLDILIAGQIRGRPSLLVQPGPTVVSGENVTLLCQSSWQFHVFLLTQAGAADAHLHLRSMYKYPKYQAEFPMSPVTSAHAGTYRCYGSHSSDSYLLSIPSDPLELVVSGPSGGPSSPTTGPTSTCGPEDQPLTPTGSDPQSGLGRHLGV
Test [9] shares this target. Description: SPR (Biacore), antibody captured on Protein A chip, soluble rhesus ILT2-ECD injected, 25 C, low resolution parameters; low resolution parameters.
In test [10] the target is ILT2 and/or ILT4 on human CD14+ monocytes. Description: flow cytometry, fluorescently-labelled antibody on CD14+ monocytes of human PBMC.
The target of test [11] is cynomolgus monkey ILT2 (protein injected in Biacore) (cynomolgus monkey). Description: SPR (Biacore), antibody captured on Protein A chip, ILT protein injected, 25 C.
Chain of cynomolgus monkey ILT2 (protein injected in Biacore) (cynomolgus monkey) (chain, as listed by the source limits assumed, form in doubt): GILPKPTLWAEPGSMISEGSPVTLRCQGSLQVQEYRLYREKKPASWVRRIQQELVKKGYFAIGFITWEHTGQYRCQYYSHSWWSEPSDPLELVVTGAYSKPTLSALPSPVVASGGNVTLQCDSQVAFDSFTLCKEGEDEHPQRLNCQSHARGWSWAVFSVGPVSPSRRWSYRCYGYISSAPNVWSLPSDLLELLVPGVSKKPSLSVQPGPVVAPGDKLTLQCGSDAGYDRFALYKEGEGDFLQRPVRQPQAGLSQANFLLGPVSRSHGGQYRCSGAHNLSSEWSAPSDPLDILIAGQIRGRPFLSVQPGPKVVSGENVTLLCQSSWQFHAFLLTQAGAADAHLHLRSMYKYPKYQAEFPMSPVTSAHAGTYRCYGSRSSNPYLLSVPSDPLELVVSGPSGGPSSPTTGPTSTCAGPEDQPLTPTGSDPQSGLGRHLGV

Positions count from the first letter of the chain named.

T1 sequence (Q8N423 other isoform, or with tags, fused parts or gaps mutant limits assumed): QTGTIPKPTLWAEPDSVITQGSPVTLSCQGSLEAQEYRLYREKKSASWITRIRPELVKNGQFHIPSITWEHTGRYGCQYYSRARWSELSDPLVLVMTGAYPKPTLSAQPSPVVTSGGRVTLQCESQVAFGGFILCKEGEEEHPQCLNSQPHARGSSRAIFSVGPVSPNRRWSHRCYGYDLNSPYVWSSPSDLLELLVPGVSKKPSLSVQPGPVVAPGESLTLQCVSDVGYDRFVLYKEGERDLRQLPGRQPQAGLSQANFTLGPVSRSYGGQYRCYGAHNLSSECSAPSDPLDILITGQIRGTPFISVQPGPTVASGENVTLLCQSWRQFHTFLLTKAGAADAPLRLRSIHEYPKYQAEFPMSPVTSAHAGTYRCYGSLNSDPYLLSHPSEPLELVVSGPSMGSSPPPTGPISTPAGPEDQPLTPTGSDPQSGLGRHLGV

B1: anti-ILT4 antibody 48A5 (antibody, V domains shown)
VH: QIQLVQSGPELKKPGETVKISCKASGYTFTNYGMNWVKQAPGKGLKWMGWINTYIGEPIYADDFKGRFAFSLETSASTAYLQINNLKNEDMATYFCARRSDYDGYAMDYWGQGTSVTVSS
VL: DIVMSQSPSSLAVSVGERVTMSCKSSQSLLYSGNQKNYLAWYQQKPGQSPKLLIYWASTRESGVPDRFTGSGSGTDFTLTISSVKAEDLAVYYCQQHDSYPTFGGGSRLEIK
As usually defined, the Kd is the constant that tells how readily two partners part at equilibrium. By koff is commonly meant a measure of how fast the partners let go of each other. Usually kon stands for the second-order rate constant of association. In [1], B1 showed an IC50 (read off the curve), %GFP+ human ILT4 reporter cells co-cultured with Raji cells of 0.02 nM. In test [2], this molecule had an IC50 (read off the curve), %GFP+ human ILT4 reporter cells co-cultured with 721.221-HLA-G cells of 0.02 nM. Also, in test [3], the Kd was 2.3 nM, the koff came out at 0.0026 s⁻¹ and the on-rate (kon) stood at 1.1e+06 M⁻¹ s⁻¹.

B2: anti-ILT2/ILT4 antibody 73D1 (antibody, V domains shown)
VH: AVQLQQSGPELVKPGASVKISCKASGYTFTDYYINWVKQSHGKSLQWIGNVNPNDGGTTYNQKFKGKATLTVDKSSSTAYMELRSLTSEDSAVYYCARREIYFYGTIYYYAMDYWGQGTSVTVSS
VL: DIVLTQSPASLAVSLGQRATISCRASESVDYYGNSFMYWYQQKPGRPPNLLIYFASNLESGVPARFSGSGSRTDFTLTIDPVEADDAATYYCQQNNEDPWTFGGGTKLEIK
A word on the EC50 (read off the curve): it is the concentration giving half of the maximal effect. In turn, B2 gave an EC50 (read off the curve) in [4] of 5 nM. The molecule further showed an EC50 (read off the curve) in test [5] of 4 nM. In addition, the IC50 (read off the curve), %GFP+ human ILT2 reporter cells co-cultured with Raji cells in test [6] came out at 0.2 nM. In [1], this molecule displayed an IC50 (read off the curve), %GFP+ human ILT4 reporter cells co-cultured with Raji cells of 0.07 nM. The IC50 (read off the curve), %GFP+ cyno ILT2 reporter cells co-cultured with Raji cells in [7] was 0.04 nM. In test [3], this molecule gave a Kd of 1.2 nM, a koff of 6e-05 s⁻¹ and a kon of 50000 M⁻¹ s⁻¹.

B3: anti-ILT2/ILT4 antibody 73C4 (antibody, V domains shown)
VH: B2 VH with I34M, Q46E, D55N, T59S
VL: B2 VL
In test [8], B3 had a Kd below 0.1 nM, a koff of 1e-05 s⁻¹ and a kon of 31000 M⁻¹ s⁻¹.

B4: anti-ILT2/ILT4 antibody 51A1 (antibody, V domains shown)
VH: EVQLVESGGGLVQPKGSLKLSCAASGFTFNTYAMHWVRQAPGKGLEWVARIRSKSSNYATYYADSVKDRFTISRDDSQSMLYLQMNNLKTEDTAMYYCVRDGIYYYGTMYYYAMDYWGQGTSVTVSS
VL: B2 VL with D1N, R46Q, N49K, D85A, T89S
In test [3], B4 came in with a Kd of 0.2 nM, a koff of 2.1e-05 s⁻¹ and a kon of 100000 M⁻¹ s⁻¹.

B5: anti-ILT2/ILT4 antibody 64A12 (antibody, V domains shown)
VH: B4 VH with G107D
VL: B2 VL with D1N, M37I, R46Q, N49K, D85A, T89S
Consider B5, for which the kon in [9] came to 20000 M⁻¹ s⁻¹. In test [8], this molecule yielded a Kd below 0.1 nM and a dissociation rate constant (koff) of 1e-05 s⁻¹.

B6: anti-ILT2/ILT4 antibody 47H6 (antibody, V domains shown)
VH: EVQLQQSGPELVKPGASVKISCKASGYTFTDYYMNWVKQSHGKSLEWIGDFNPNNGGTTYNQKFEGKATLTVDKSSNTAYMDLRSLTSEDSAVYYCARGRFYYGSLYSFDYWGQGTTLTVSS
VL: DIQMTQSPASLSASVGETVTITCRASGNIHNYLAWYQQKQGKSPHLLVYNAKTLADGVPSRFSGSGSGTQYSLKINNLQPEDFGSYYCQHFWTSITFGAGTKLDLK
For the molecule B6, in test [8], the Kd is below 0.1 nM, the koff is 1e-05 s⁻¹ and the kon was 47000 M⁻¹ s⁻¹.

B7: humanized anti-ILT2/ILT4 antibody Hz73D1.v1 (antibody, human IgG1, kappa, N297G, V domains shown)
VH: QVQLVQSGAEVKKPGASVKVSCKASGYTFTDYYINWVRQAPGQGLEWMGNVNPNDGGTTYNQKFKGRVTMTTDTSTSTAYMELRSLRSDDTAVYYCARREIYFYGTIYYYAMDYWGQGTLVTVSS
VL: DIQLTQSPSFLSASVGDRVTITCRASESVDYYGNSFMYWYQQKPGKAPKLLIYFASNLESGVPSRFSGSGSGTEFTLTISSLQPEDFATYYCQQNNEDPWTFGGGTKVEIKR
As usually defined, the EC50 is the concentration needed to bring the measured effect to its halfway point. The molecule B7 returned an EC50 in [10] of 8.8 nM. Besides, in test [11], the Kd was 19.1 nM, the koff was found to be 0.06 s⁻¹ and the kon was 3.4e+06 M⁻¹ s⁻¹.

B8: anti-ILT4 antibody 47C8 (antibody, V domains shown)
VH: EVQLQQSGPDLVKPGASVKISCKASGYSFTGYYMHWVKQSHGKSLEWIGRVYPNNGDTSYNQKFKVKAILTVDKSSSTAYMELRSLTSEDSAVYYCARGATVVESLFAYWGQGTLVTVSA
VL: DIVLTQSPASLAVSLGQRATISCRASESVDNYGNNFLHWYQQKPGQPPKLLIYRTSNLESGIPARFSGSGSRTDFTLTINPVEADDVATYYCQQSNEDPYTFGGGTKLEIK
With B8, in test [3], the Kd was determined as 2.3 nM, the koff was 0.0014 s⁻¹ and the kon stood at 590000 M⁻¹ s⁻¹.

B9: anti-ILT2 antibody 27F9 (antibody, V domains shown)
VH: QVQLKESGPGLVAPSQSLSITCTVSGFSLTNYGVSWVRQPPGKGLEWLGIIWGDGSTNYHSALISRLSISKDNSKSQVFLKLNSLQADDTATYYCAKPNWDTYAMDFWGQGTSVTVSS
VL: DIQMTQTTSSLSASLGDRVTISCRASQDISNFLNWYQQKPDGTVKLLIYCTSKLHSGVPSRFSGSGSETDYSLTISNLEQEDIATYFCQQGNTLPPTFGGGTKLEII
On to B9, for which, in test [6], the IC50 (read off the curve), %GFP+ human ILT2 reporter cells co-cultured with Raji cells stood at 0.04 nM.

Values taken from US20240025997A1.
